T1: CEACAM-6 (NCA or CD66c) (UniProt P40199 35-320, limits assumed)
T1 construct: whole, on cells
T1 sequence (looked up): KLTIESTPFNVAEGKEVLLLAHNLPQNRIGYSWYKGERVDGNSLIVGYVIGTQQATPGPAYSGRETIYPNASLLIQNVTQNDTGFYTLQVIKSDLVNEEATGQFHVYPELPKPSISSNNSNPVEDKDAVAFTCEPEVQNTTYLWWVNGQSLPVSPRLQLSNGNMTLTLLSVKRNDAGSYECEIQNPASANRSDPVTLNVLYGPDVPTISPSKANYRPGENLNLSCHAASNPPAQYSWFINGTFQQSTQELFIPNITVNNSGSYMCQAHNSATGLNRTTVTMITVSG


Columns and labels:
[1] = target: carcinoembryonic antigen (CEA) on WiDr human colorectal cancer cells (human) (UniProt P06731); assay: cell-based or functional assay
[2] = target: T1, CEACAM-6 (NCA or CD66c); assay: immunofluorescence on tissues (liver and stomach) and flow cytometry on leukocytes, data not shown

Molecule | doubly selected cells (Effector Cell (CD89+): WiDr target cells (CEA+)) by flow cytometry, in vivo in SCID-CD89 mice [1] | binding result [2]
irrelevant polymeric IgA anti-peanut (antibody) | 10.2% | –
anti-CEA IgA monoclonal antibody clone 15B3 (human/mouse chimeric IgA1, hybridoma culture supernatant) (antibody, V domains shown, From HAMIGA mice: human IgA1 heavy chain constant regions, mouse light chain constant regions, mouse variable regions; The hybridoma supernatant holds monomeric (no J chain) and polymeric (murine J chain) forms; also called mAb 15B3; IgA anti-CEA clone #15B3) VH: QIQLVQSGPELKKPGETVKISCKASGYTFTNYGMNWVNQAPGKGLKWMGWINTNTGEPTYAEEFKGRFAFSLETSASTAYLQINNLKNEDTATYFCARLWYLYFDVWGAGTTVTVSS VL: DIQMTQSPASQSASLGESVTITCLASQTIGTRLAWYQQKPGKSPQLLIYAATRLADGVPSRFSGSGSGTKFSFKISSLQAEDFVSYYCQQLYSTPYTFGGGTKLEIK | – | no binding

Source: patent US20200055952A1 (B CELL DESIGN, published 2020)
